This passage reports stoichiometry N results from PMC6030378.

In this test the target is human IgG1 Fc fragment released from ROR-ED-Fc by 3C protease (human). As to the kind of experiment: SEC; Superdex 200 10/300 of the fusion protein cleaved with 3C protease; 50 mM HEPES, 500 mM NaCl, 150 mM KCl, 300 mM arginine, 5% glycerol; ROR-ED at 12.4 ml, Fc at 14.3 ml; mass estimated against standards, glycans considered.

For “human IgG1 Fc fragment released from ROR-ED-Fc by 3C protease (domain or fragment)”, the stoichiometry N (commonly the number of molecules, sites or subunits per partner or assembly) is 2.
